Residue numbers refer to the chain shown, from its start.

Experimental findings from US20240029824A1 (University of Washington, published 2024) are described below.

B1: DHT03_3arm chain B (B21, SEQ ID NO: 73) (designed binder)
chain: SEKEKVEELAQRIREQLPDTELAREAQELADEARKSDDSEALKVVYLALRIVQQLPDTELAREALELAKEAVKSTDSEQLEVVRLALEIVQLAPDTRLARAALKLAKEAVKSTDQEELKKVKAILRVASEVLKLEEEAKKSQEEVERLKQEVEKASKAGLDHEGDSRIFKKIHDVVTKQIKVILRLIAVYAELVAIIG
notes: separately expressed with an N- or C-terminal 6xHis-tag
B2: DHT05 chain B (SEQ ID NO: 88) (designed binder)
chain: SEVEKRLLEIHRRVAESHRILVEVHEALIEALRGNSEEAKEKLKELVKELEKIIKEEEELLKELEKIVEEAS
B3: DHT05 chain A (designed binder)
chain: PEEKKEIKRTTEEVKEEFRKIQEEIKKLEEEAKKAEKGNGKEEIKELLLRLSELLARSLQLLAQQIEAIAKLIRG
B4: DHT05_2arm_A62/B14/C chain B (designed binder)
chain: SEVEKRLLEIHREVAESHRILVEVHEALIEALRGNSEEAKEKLKELVKKLEKIIKEEEELLKKLEKIVVQALAKAAKQATDSRQVNEIVKQLAEIAKEATDKRLVIEIVKILAELAKQSTDSELVNEIVKQLAEVAKEATDKELVIYIVKILAELAKQSTDSELVNEIVKQLEEVAKEATDKELVEHIEKILEELKKQSTD
B5: DHT05_3arm_A62/B71/C62 chain A (designed binder)
chain: NDEKRKRAEKALQRAQEAEKKGDVEEAVRAAQEAVRAAKESGDNDVLRKVAEQALRIAEEAEKQGNVEVAVKAARVAVEAAKQAGDNDVLRKVAEQALRIAEEAEKQGNVKVAADAVEVAVEAATQAGDQDVLRKASEQAKKVAKEAKKKGDHKVAVKATTLAVKAEFAAIQEEIKKLEEEAKKAEKGNGKEEIKELLLELSELLARSLQLLAQQIEAIAKLIRG
B6: DHT01-4arm-02 chain B (designed binder)
chain: MSSDEEEARELIERAKEAAERAQEAAERTGDPRVRELARELKRLAQEAAEEVKRDPSSSDVNEALKLIVEAIEAAVRALEAAERTGDPEVRELARELVRLAVEAAEEVQRNPSSSDVNRALKLIVRAIEAAVQLLEHAEKSGDPEVRELARELVRRLVEAAEEVQRNPSDEQKNTQLRRLIAKAEVWLLNEEFKEAEKRFRKLQEETKKALEEVEELNQRFEEALEEVERIKRRQK
notes: Strep-tag II was added to the N-terminus of chain B of DHT01 arms; also called C2-DHT01-04 chain B
B7: DHT05_2arm_A62/B14(2)-LHD101B14/C chain B (designed binder)
chain: SETEKRLLEIHRRVAESHRILVEVHEALIEALRGNSEEAKEKLKELVKKLEKIIREEEKLTVELAAKVAKSADDSEKVNEIVKTLAEIAKEATDKEQVIRIVKILAELAKQSTDSELVNEIVKQLAEVAKEATDKELVIYIVDILLKLAEQADDDELVEEIRKQLEEVAKEATDKELVEIIKAVIVLLVIISVVARMGVTMEIHKSGREVKVVIKGLHESQQEQLLEAVLRAAEEAGVRVRIRFKGDTVTIVVRG
B8: DHT01 chain A (designed binder)
chain: DEEEKLRESLEEQKKRVKEIEREHEEIREALKRLQESVKRQEEALRQLG
notes: one chain of the co-expressed design carried a 6xHis-tag and a second a Strep-tag II

Experiment [1] has as its target T1, DHT03_3arm_A21/B21/C53 chain C.
T1 chain: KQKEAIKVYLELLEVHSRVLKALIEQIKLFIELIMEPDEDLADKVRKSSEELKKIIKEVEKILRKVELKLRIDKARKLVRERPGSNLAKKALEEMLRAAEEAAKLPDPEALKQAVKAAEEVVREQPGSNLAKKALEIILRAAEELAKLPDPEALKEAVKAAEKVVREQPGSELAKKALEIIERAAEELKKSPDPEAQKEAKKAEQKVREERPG
The experiment can be described thus: individually purified chains mixed 1:1:1, heat annealed, SEC. From the text:
(§1) To test this idea, an equimolar amount of individually purified A, B, and C of DHT03_2arm_A21/B21/C were mixed together and run through an annealing protocol (see Methods) to allow these interfaces to reassemble in the presence of all components. A monodisperse SEC peak was observed belonging to the ABC heterotrimer state as confirmed by overlap with its SEC co-expressed tricistronic version (FIG. 3d). To explore the use of this approach for building, four different repeat protein fusions to chain C were annealed in the same manner and all four 3-arm heterotrimers were successfully reconstituted. […] The successful reconstitution of these ABC assemblies, following the independent expression and purification of each chain and explicit mixing at a 1:1:1 ratio, enables their use in conjunction with other de novo proteins to mediate the specific assembly of multi-component assemblies. Independent expression also has considerable advantages over tricistronic expression from a gene synthesis perspective as DNA becomes much more difficult and expensive to synthesize with increasing construct size.
(§2) To test whether the DHT03 components could properly assemble in the presence of other helical hairpin containing chains, as would be the case for more complex assemblies, we chose DHD131, a designed helical hairpin unit heterodimer containing buried hydrogen bond networks¹². […] We evaluated simultaneous reconstitution of DHD131 and DHT03_3arm_A21/B21/C82, since the size difference between the two constructs (if correctly assembled) should be detected by SEC. We separately expressed and individually purified the two chains of the heterodimer and the three chains of the heterotrimer, mixed them at a 1:1:1:1:1 ratio, and carried out annealing and SEC as described above.

In experiment [2] the target is T2, DHT03_3arm_A21/B21/C82 chain C.
T2 construct: also called chain C DHR82 fusion; chain C of C3-DHT03-01-DHR82 and C4-DHT03-01-DHR82
T2 chain: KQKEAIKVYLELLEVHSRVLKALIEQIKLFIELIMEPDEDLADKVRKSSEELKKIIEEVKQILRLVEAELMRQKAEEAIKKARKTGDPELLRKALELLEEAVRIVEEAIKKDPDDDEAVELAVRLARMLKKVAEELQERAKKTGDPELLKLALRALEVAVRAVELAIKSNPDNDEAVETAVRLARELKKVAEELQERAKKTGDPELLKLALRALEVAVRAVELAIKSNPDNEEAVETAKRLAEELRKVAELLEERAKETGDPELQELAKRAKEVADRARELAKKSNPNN
The experiment is described as above.
Source text: as §1, §2

In experiment [3] the target is T3, DHT03_3arm_A21/B21/C62 chain C.
T3 chain: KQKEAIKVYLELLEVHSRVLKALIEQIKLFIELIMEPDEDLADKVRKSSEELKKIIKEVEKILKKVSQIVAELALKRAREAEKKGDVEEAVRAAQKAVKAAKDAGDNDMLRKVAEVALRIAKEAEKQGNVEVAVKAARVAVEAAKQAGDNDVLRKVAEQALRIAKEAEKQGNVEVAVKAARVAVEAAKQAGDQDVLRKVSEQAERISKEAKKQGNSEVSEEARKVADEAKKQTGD
The description is as above.
Source text: as §1, §2

For experiment [4], the target named is T4, DHT03_3arm_A21/B21/C59 chain C.
T4 chain: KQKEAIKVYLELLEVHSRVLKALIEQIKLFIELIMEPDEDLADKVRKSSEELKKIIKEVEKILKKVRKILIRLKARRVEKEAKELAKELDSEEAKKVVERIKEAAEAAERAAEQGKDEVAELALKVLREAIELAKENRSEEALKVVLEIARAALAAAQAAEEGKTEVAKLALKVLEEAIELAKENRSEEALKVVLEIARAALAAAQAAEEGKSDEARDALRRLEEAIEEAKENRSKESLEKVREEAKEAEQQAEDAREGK
Described as above.
Source text: as §1, §2

The target of experiment [5] is T5, DHT05 chain C (SEQ ID NO: 89).
T5 chain: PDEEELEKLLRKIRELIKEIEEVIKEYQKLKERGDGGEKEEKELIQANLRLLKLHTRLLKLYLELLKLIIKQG
Put plainly: SEC and SAXS; chains of one ABC heterotrimer.

The target in experiment [6] is B2. Put plainly: SEC and SAXS; chains of one ABC heterotrimer.
The target in experiment [7] is T6, DHT05 chain C (SEQ ID NO: 95).
T6 chain: T5 chain with K29E, K42E
Put plainly: SEC and SAXS; chains of one ABC heterotrimer.

For experiment [8], the target named is T7, DHT05_3arm_A62/B71/C62 chain B.
T7 chain: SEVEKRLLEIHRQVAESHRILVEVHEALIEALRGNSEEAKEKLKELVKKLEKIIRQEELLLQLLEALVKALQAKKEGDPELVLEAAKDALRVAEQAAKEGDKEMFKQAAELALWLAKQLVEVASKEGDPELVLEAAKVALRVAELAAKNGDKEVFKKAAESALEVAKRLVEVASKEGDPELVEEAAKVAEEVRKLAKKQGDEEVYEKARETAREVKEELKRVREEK
Put plainly: SEC and SAXS; chains of one ABC heterotrimer.

Experiment [9] deals with T8, DHT05_3arm_A62/B71/C62 chain C.
T8 chain: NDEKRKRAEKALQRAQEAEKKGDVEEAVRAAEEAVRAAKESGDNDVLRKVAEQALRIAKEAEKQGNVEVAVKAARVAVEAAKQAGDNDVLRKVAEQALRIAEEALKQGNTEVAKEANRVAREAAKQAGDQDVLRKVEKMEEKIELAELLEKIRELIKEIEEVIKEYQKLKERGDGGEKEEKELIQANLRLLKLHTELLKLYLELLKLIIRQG
The experiment can be described thus: SEC and SAXS; chains of one ABC heterotrimer.

The target of experiment [10] is T9, DHT01-4arm-01 chain C.
T9 construct: also called DHT01-4arm-02 chain C; C2-DHT01-01 chain B
T9 chain: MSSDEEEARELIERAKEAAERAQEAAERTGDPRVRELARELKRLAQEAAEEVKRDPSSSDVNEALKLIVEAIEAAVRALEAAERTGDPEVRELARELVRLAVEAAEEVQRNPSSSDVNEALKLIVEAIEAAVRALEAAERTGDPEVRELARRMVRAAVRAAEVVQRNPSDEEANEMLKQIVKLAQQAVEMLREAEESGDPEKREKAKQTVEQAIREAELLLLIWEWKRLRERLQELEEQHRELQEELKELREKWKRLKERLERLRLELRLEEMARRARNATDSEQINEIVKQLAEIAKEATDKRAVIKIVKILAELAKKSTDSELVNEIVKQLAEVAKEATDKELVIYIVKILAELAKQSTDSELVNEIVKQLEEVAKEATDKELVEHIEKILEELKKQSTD
Put plainly: SEC and SDS-PAGE; chains of one ABC heterotrimer.

The target of experiment [11] is T10, DHT05 chain C (SEQ ID NO: 98).
T10 chain: T5 chain with K29E, R57E
The experiment can be described thus: co-expression, SEC, SAXS; chains of one ABC heterotrimer.

For experiment [12], the target named is T11, DHT01 chain C.
T11 chain: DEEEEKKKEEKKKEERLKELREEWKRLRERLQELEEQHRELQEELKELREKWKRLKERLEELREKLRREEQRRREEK
The experiment can be described thus: co-expression, IMAC and Strep-Tactin pull-down, SEC, native MS; chains of one ABC heterotrimer. From the text:
(§3) We obtained genes encoding 20 coiled coil designed heterotrimers (DHTs) in a tricistronic E. coli expression vector with one chain having a 6×His-tag and a second chain having Strep-tag II, expressed the proteins, and purified by immobilized metal affinity chromatography (IMAC) and Strep-Tactin pull-down. All designs were soluble and for 6 designs, all three components were observed by liquid chromatography-mass spectrometry (LC-MS) after both pull-down approaches. Of these, 5 eluted as monodisperse peaks by SEC, but only 1 design (DHT01) was an exclusive ABC heterotrimer by native mass spectrometry (nMS) and had good agreement with the design model via small angle X-ray scattering (SAXS) (FIG. 2d, Table 7).
(§4) Samples were analyzed by online buffer exchange native mass spectrometry (nMS) to evaluate sample purity and accurately determine oligomeric states⁴². Multiple instruments were used as the analyses were carried out over the duration of the protein design process. The mass spectrometers used for detection were a Q Exactive™ UHMR modified with a surface-induced dissociation device and an Exactive™ Plus EMR modified with a selection quadrupole and a surface-induced dissociation device (Thermo Fisher Scientific)⁴³. The liquid chromatography systems used for the buffer exchange include a Vanquish™ Duo UHPLC and a Dionex™ Ultimate 3000 HPLC (Thermo Fisher Scientific). A heated electrospray ionization source (HESI-II, Thermo Fisher Scientific) with a spray voltage of ˜4 kV was used for ionization. Protein samples stored in Tris buffer were injected (0.1-2 ug) onto the LC system and exchanged at a flow rate of 100-200 uL*min⁻¹ into 200 mM ammonium acetate (mobile phase) prior to ionization. Buffer exchange columns used include self-packed columns with P6 polyacrylamide gel (Bio-Rad Laboratories) and prototype buffer exchange columns provided by Thermo Fisher Scientific (Sunnyvale, CA). Instrument parameters were optimized to allow for ion transmission while minimizing unintentional ion activation. […]

In experiment [13] the target is T12, DHT01 chain B.
T12 chain: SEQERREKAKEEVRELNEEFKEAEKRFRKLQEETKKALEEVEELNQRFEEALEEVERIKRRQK
Described as above.
Source text: as §3, §4

As for B1, the binding result in [1], in experiment [2], in experiment [3] and in experiment [4] was “binds” each time. Consider B2, for which, in experiment [5], the binding result is “binds”. For the molecule B3, the binding result in [6] is “binds”. Take B4: the binding result in [7] was “binds”. Take B5: the binding result in experiment [8] and in [9] was “binds” throughout. Take B6: the binding result in experiment [10] is recorded as “binds”. As to B7, in experiment [11], the binding result is on record as “binds”. B8: the binding result in [12] and in experiment [13] was “binds” each time.
